This assay deals with UbAMC (Homo sapiens (Human)) (UniProt P0CG48).

The text below walks through data of patent publication US20060051755A1.

For the substance GST-Bap-1 (enzyme), the Km, fluorogenic ubiquitin cleavage assay turned out to be 0.5 µM.
